Test results reported in patent publication US20230212319A1, “NOVEL ANTIGEN BINDING DOMAINS AND SYNTHETIC ANTIGEN RECEPTORS INCORPORATING THE SAME” (University of Southern California, priority 2020, published 2023).

B1: 22207 (protein)
chain: MALPVTALLLPLALLLHAARPDIQMTQSPSSLSASVGDRVTITCKASDHINNWLAWYQQKPGQAPKLLIYGATTLETGVPSRFSGSGSGTDYTLTISSLQPEDFATYYCQQSWNTPWTFGQGTKLEIKRLEGQPKANPTVTLFPPSSEELQANKATLVCLISDFYPGAVTVAWKADGSPVKAGVETTKPSKQSNNKYAASSYLSLTPEQWKSHRSYSCQVTHEGSTVEKTVAPTECSPIKTDVITMDPKDNCSKDANDTLLLQLTNTSAYYMYLLLLLKSVVYFAIITCCLLRRTAFCCNGEKSRAKRSGSGATNFSLLKQAGDVEENPGPTSMDWIWRILFLVGAATGAHSFEQVQLQQPGAELVKPGASVKMSCKASGYAFSSYWINWMKQKPGQGLEWIGQIYPGDGDTNYNGKFKGRATLTADTSSSTAYMQLSSLTSEDSAVYFCARSITTVVGCAMDYWGQGTSVTVSSTRSQPHTKPSVFVMKNGTNVACLVKEFYPKDIRINLVSSKKITEFDPAIVISPSGKYNAVKLGKYEDSNSVTCSVQHDNKTVHSTDFEVKTDSTDHVKPKETENTKQPSKSCHKPKAIVHTEKVNMMSLTVLGLRMLFAKTVAVNFLLTAKLFFLRAKRSGSGVKQTLNFDLLKLAGDVESNPGPSRGHMTEYKPTVRLATRDDVPRAVRTLAAAFADYPATRHTVDPDRHIERVTELQELFLTRVGLDIGKVWVADDGAAVAVWTTPESVEAGAVFAEIGPRMAELSGSRLAAQQQMEGLLAPHRPKEPAWFLATVGVSPDHQGKGLGSAVVLPGVEAAERAGVPAFLETSAPRNLPFYERLGFTVTADVEVPEGPRTWCMTRKPGA
B2: 22082 (protein)
chain: MALPVTALLLPLALLLHAARPQLQLQESGPGLVKPSETLSLTCTVSGDSISSGDYYWGWIRQPPGKGLEWIGHIYYSGVTYYNPSLKSRVTISVDTSRNQFSLKLSSVTAADTAVYYCTREDSSNWRSRGQGTLVTVSSLESGGGGSFEQLQLQESGPGLVKPSETLSLTCTVSGGSISSGDYYWGWIRQPPGKGLEWIGHIYYSGATYYNPSLKSRVTISVDTSRNQFSLKLSSVTAADTAVYYCTRDDSSNWRSRGQGTLVTVSSTRASTKGPSVFPLAPSSKSTSGGTAALGCLVKDYFPEPVTVSWNSGALTSGVHTFPAVLQSSGLYSLSSVVTVPSSSLGTQTYICNVNHKPSNTKVDKRVEPKSCIPEDTFFPSPESSCDVKLVEKSFETDTNLNFQNLSVIGFRILLLKVAGFNLLMTLRLWSSRAKRSGSGVKQTLNFDLLKLAGDVESNPGPSRGHMTEYKPTVRLATRDDVPRAVRTLAAAFADYPATRHTVDPDRHIERVTELQELFLTRVGLDIGKVWVADDGAAVAVWTTPESVEAGAVFAEIGPRMAELSGSRLAAQQQMEGLLAPHRPKEPAWFLATVGVSPDHQGKGLGSAVVLPGVEAAERAGVPAFLETSAPRNLPFYERLGFTVTADVEVPEGPRTWCMTRKPGA
B3: 22202 (protein)
chain: MALPVTALLLPLALLLHAARPACAGHLEQPQISSTKTLSKTARLECVVSGITISATSVYWYRERPGEVIQFLVSISYDGTVRKESGIPSGKFEVDRIPETSTSTLTIHNVEKQDIATYYCALWEAQQELGKKIKVFGPGTKLIITDKQLDKQLDADVSPKPTIFLPSIAETKLQKAGTYLCLLEKFFPDVIKIHWQEKKSNTILGSQEGNTMKTNDTYMKFSWLTVPEKSLDKEHRCIVRHENNKNGVDQEIIFPPIKTDVITMDPKDNCSKDANDTLLLQLTNTSAYYMYLLLLLKSVVYFAIITCCLLRRTAFCCNGEKSRAKRSGSGATNFSLLKQAGDVEENPGPTSATMDWIWRILFLVGAATGAHSGPQVQLQESGGGLAQAGGSLRLSCAASGRTFSMGWFRQAPGKEREFVAAITYSGGSPYYASSVRGRFTISRDNAKNTVYLQMNSLKPEDTAVYYCAANPTYGSDWNAENWGQGTQVTVSSGSGGGGSGGGGSGGGGSFEAIELVPEHQTVPVSIGVPATLRCSMKGEAIGNYYINWYRKTQGNTMTFIYREKDIYGPGFKDNFQGDIDIAKNLAVLKILAPSERDEGSYYCACDTLGMGGEYTDKLIFGKGTRVTVEPRSQPHTKPSVFVMKNGTNVACLVKEFYPKDIRINLVSSKKITEFDPAIVISPSGKYNAVKLGKYEDSNSVTCSVQHDNKTVHSTDFEVKTDSTDHVKPKETENTKQPSKSCHKPKAIVHTEKVNMMSLTVLGLRMLFAKTVAVNFLLTAKLFFLRAKRSGSGVKQTLNFDLLKLAGDVESNPGPSRAHMTEYKPTVRLATRDDVPRAVRTLAAAFADYPATRHTVDPDRHIERVTELQELFLTRVGLDIGKVWVADDGAAVAVWTTPESVEAGAVFAEIGPRMAELSGSRLAAQQQMEGLLAPHRPKEPAWFLATVGVSPDHQGKGLGSAVVLPGVEAAERAGVPAFLETSAPRNLPFYERLGFTVTADVEVPEGPRTWCMTRKPGA
B4: 22205 (protein)
chain: MTIRLLCYMGFYFLGAGLMEADIYQTPRYLVIGTGKKITLECSQTMGHDKMYWYQQDPGMELHLIHYSYGVNSTEKGDLSSESTVSRIRTEHFPLTLESARPSHTSQYLCASSEARGLAEFTDTQYFGPGTRLTVLEDLKNVFPPEVAVFEPSEAEISHTQKATLVCLATGFYPDHVELSWWVNGKEVHSGVCTDPQPLKEQPALNDSRYCLSSRLRVSATFWQNPRNHFRCQVQFYGLSENDEWTQDRAKPVTQIVSAEAWGRADCGFTSESYQQGVLSATILYEILLGKATLYAVLVSALVLMAMVKRKDSRGRAKRSGSGATNFSLLKQAGDVEENPGPTSATMDWIWRILFLVGAATGAHSGPQVQLQESGGGLAQAGGSLRLSCAASGRTFSMGWFRQAPGKEREFVAAITYSGGSPYYASSVRGRFTISRDNAKNTVYLQMNSLKPEDTAVYYCAANPTYGSDWNAENWGQGTQVTVSSGSGGGGSGGGGSGGGGSFEQVQLQQPGAELVKPGASVKMSCKASGYAFSSYWINWMKQKPGQGLEWIGQIYPGDGDTNYNGKFKGRATLTADTSSSTAYMQLSSLTSEDSAVYFCARSITTVVGCAMDYWGQGTSVTVSSTRIQNPDPAVYQLRDSKSSDKSVCLFTDFDSQTNVSQSKDSDVYITDKCVLDMRSMDFKSNSAVAWSNKSDFACANAFNNSIIPEDTFFPSPESSCDVKLVEKSFETDTNLNFQNLSVIGFRILLLKVAGFNLLMTLRLWSSRAKRSGSGVKQTLNFDLLKLAGDVESNPGPSRGHMTEYKPTVRLATRDDVPRAVRTLAAAFADYPATRHTVDPDRHIERVTELQELFLTRVGLDIGKVWVADDGAAVAVWTTPESVEAGAVFAEIGPRMAELSGSRLAAQQQMEGLLAPHRPKEPAWFLATVGVSPDHQGKGLGSAVVLPGVEAAERAGVPAFLETSAPRNLPFYERLGFTVTADVEVPEGPRTWCMTRKPGA
B5: 22200 (protein)
chain: MTIRLLCYMGFYFLGAGLMEADIYQTPRYLVIGTGKKITLECSQTMGHDKMYWYQQDPGMELHLIHYSYGVNSTEKGDLSSESTVSRIRTEHFPLTLESARPSHTSQYLCASSEARGLAEFTDTQYFGPGTRLTVLEDLKNVFPPEVAVFEPSEAEISHTQKATLVCLATGFYPDHVELSWWVNGKEVHSGVCTDPQPLKEQPALNDSRYCLSSRLRVSATFWQNPRNHFRCQVQFYGLSENDEWTQDRAKPVTQIVSAEAWGRADCGFTSESYQQGVLSATILYEILLGKATLYAVLVSALVLMAMVKRKDSRGRAKRSGSGATNFSLLKQAGDVEENPGPTSATMDWIWRILFLVGAATGAHSGPQVQLQESGGGLAQAGGSLRLSCAASGRTFSMGWFRQAPGKEREFVAAITYSGGSPYYASSVRGRFTISRDNAKNTVYLQMNSLKPEDTAVYYCAANPTYGSDWNAENWGQGTQVTVSSGSGGGGSGGGGSGGGGSFEAQTVTQSQPEMSVQEAETVTLSCTYDTSESDYYLFWYKQPPSRQMILVIRQEAYKQQNATENRFSVNFQKAAKSFSLKISDSQLGDAAMYFCAYRSAVNARLMFGDGTQLVVKPNTRIQNPDPAVYQLRDSKSSDKSVCLFTDFDSQTNVSQSKDSDVYITDKCVLDMRSMDFKSNSAVAWSNKSDFACANAFNNSIIPEDTFFPSPESSCDVKLVEKSFETDTNLNFQNLSVIGFRILLLKVAGFNLLMTLRLWSSRAKRSGSGVKQTLNFDLLKLAGDVESNPGPSRGHMTEYKPTVRLATRDDVPRAVRTLAAAFADYPATRHTVDPDRHIERVTELQELFLTRVGLDIGKVWVADDGAAVAVWTTPESVEAGAVFAEIGPRMAELSGSRLAAQQQMEGLLAPHRPKEPAWFLATVGVSPDHQGKGLGSAVVLPGVEAAERAGVPAFLETSAPRNLPFYERLGFTVTADVEVPEGPRTWCMTRKPGA
B6: 22097 (protein)
chain: MALPVTALLLPLALLLHAARPQLQLQESGPGLVKPSETLSLTCTVSGDSISSGDYYWGWIRQPPGKGLEWIGHIYYSGVTYYNPSLKSRVTISVDTSRNQFSLKLSSVTAADTAVYYCTREDSSNWRSRGQGTLVTVSSLEGQPKANPTVTLFPPSSEELQANKATLVCLISDFYPGAVTVAWKADGSPVKAGVETTKPSKQSNNKYAASSYLSLTPEQWKSHRSYSCQVTHEGSTVEKTVAPTECSGRADCGFTSESYQQGVLSATILYEILLGKATLYAVLVSALVLMAMVKRKDSRGRAKRSGSGATNFSLLKQAGDVEENPGPTSMDWIWRILFLVGAATGAHSFEVQLLESGGGLIQPGGSLRLSCAASGFTFSSHAMTWVRQAPGKGLEWVSAISGSGDYTHYADSVKGRFTISRDNSKNTVYLQMNSLRAEDSAVYYCAKDEDGGSLLGHRGQGTLVTVSSTRASTKGPSVFPLAPSSKSTSGGTAALGCLVKDYFPEPVTVSWNSGALTSGVHTFPAVLQSSGLYSLSSVVTVPSSSLGTQTYICNVNHKPSNTKVDKRVEPKSCIPEDTFFPSPESSCDVKLVEKSFETDTNLNFQNLSVIGFRILLLKVAGFNLLMTLRLWSSRAKRSGSGVKQTLNFDLLKLAGDVESNPGPSRGHMTEYKPTVRLATRDDVPRAVRTLAAAFADYPATRHTVDPDRHIERVTELQELFLTRVGLDIGKVWVADDGAAVAVWTTPESVEAGAVFAEIGPRMAELSGSRLAAQQQMEGLLAPHRPKEPAWFLATVGVSPDHQGKGLGSAVVLPGVEAAERAGVPAFLETSAPRNLPFYERLGFTVTADVEVPEGPRTWCMTRKPGA

test system: RAJI cells; test: JNG assay, co-culture with RAJI cells; assay type: cell-based; details: JNG cells expressing construct, co-culture with Raji
Procedure, shortened: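 Jurkat-NFAT-GFP (JNG) cells stably expressing SAR constructs via lentiviral transduction and puromycin/blasticidin selection were cocultured with target cells at E:T ~1:2 for ~4–18 h. NFAT-driven GFP was measured by FACS versus parental JNG cells; scores +/- to 5+ denote ~5–50% GFP-positive cells.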

Row | Molecule | NFAT-GFP ASSAY: Raji
1 | B1 | Raji (5+) (refer to approximately 5%, 10%, 20%, 30%, 40% and 50% GFP positive cells)
2 | B2 | +/- (refer to approximately 5%, 10%, 20%, 30%, 40% and 50% GFP positive cells)
3 | B3 | Raji (3+) (refer to approximately 5%, 10%, 20%, 30%, 40% and 50% GFP positive cells)
4 | B4 | Raji (5+) (refer to approximately 5%, 10%, 20%, 30%, 40% and 50% GFP positive cells)
5 | B5 | + (refer to approximately 5%, 10%, 20%, 30%, 40% and 50% GFP positive cells)
6 | B6 | + (refer to approximately 5%, 10%, 20%, 30%, 40% and 50% GFP positive cells)
